Reference: patent US20250134019A1, “TRIKETONE DIOXYGENASE VARIANTS FOR HERBICIDE TOLERANCE” (Monsanto Technology LLC, priority 2022, published 2025)

Columns and labels:
[1] = system: transgenic soybean plants; assay: Response of R0 soybean plants transformed with Round 2 TDO variants to mesotrione; assay type: in vivo; conditions: same expression elements; Os.TDO control failed transformation in this experiment
Source text: The next set of experiments was focused on determining if the balance between improved enzyme stability could outweigh a reduction in activity observed at optimal temperatures in soybean plants. […] To test this hypothesis, the eight variants from Round 2 biochemical analysis described in the preceding paragraph were transformed into soybean through Agrobacterium-mediated transformation, along with three controls. One of the controls (TDO_9) was a variant from the high-throughput screens that had poor activity. Two other controls were the D08 variant and the Os.TDO. R0 transgenic soybean plants were sprayed with the mesotrione herbicide to screen for herbicide tolerance. […] These included the Os.TDO control, the D08 variant and one Round 2 variant. The plants were scored for percent injury as described in the previous examples.

[2] = Specific activity of purified TDO proteins, second hydroxylation of mesotrione; assay type: biochemical; conditions: purified His6-tagged protein from E. coli, FIG. 8
Source text: Activity was expressed as nmol/min/mg protein and was the mean of three separate assays on the same enzyme sample (technical reps).
To test the hypothesis, the four amino acids of sorghum TDO corresponding to amino acid positions 230, 301, 332, and 335 in rice TDO were replaced with those of rice TDO. The corn, rice, sorghum, and the modified sorghum TDO genes were cloned into a pET28 vector for E. coli expression with His6 tag in the N-terminus. Subsequently, the proteins were expressed and purified by affinity chromatography. BL21-CodonPlus (DE3)-RIPL E. coli cells (Stratagene) were used for expression. Cells transformed with expression vector were grown in autoinduction media (AIM) supplemented with 100 μg mL-1 kanamycin and 34 μg mL-1 chloramphenicol.
TDO proteins used in this study were expressed in AIM cells using an auto-induction system as described by Studier (2014). Briefly, the recombinant cultures were grown at 37° C. for 3 hours and then 20° C. for one or two days. Cells were harvested by centrifugation and frozen at −80° C. The pellet was resuspended in lysis buffer (Bper and Yper [Pierce] with ratio 3 to 1, 25 mM Tris-HCl, 300 mM NaCl, 10 mM imidazole, pH 8.0). 150 mM ferric ammonium citrate (1000X) was added to the lysate to a final concentration of 150 µM and incubated on ice for 20 minutes. The lysate was centrifuged to clarify the supernatant. Clear supernatant was loaded onto a 5 mL Ni column connected to AKTA Express (GE Healthcare). […] Protein concentrations were determined spectrophotometrically based on their calculated molar absorption extinction coefficients at 280 nm.
TDO activity was measured by the second hydroxylation of mesotrione. For routine activity measurements of TDO and determining the kinetic properties of the second hydroxylation, the continuous change in A330, which is specific to the second hydroxylation and subsequent non-enzymatic water removal (i.e. the conversion of hydroxy-mesotrione to oxy-mesotrione), was monitored. […] The reaction proceeded until the maximum A330 was obtained (usually 20-120 minutes depending upon the concentration of mesotrione) and the linear portion of the curve was determined by visual inspection. […]
For the activity calculation, aliquots of the reaction were removed at various time points during the reaction and heated at 95° C. to halt the reaction. The reaction mixtures were analyzed by HPLC and mass spectrophotometry. By product conversation followed by peak integration on HPLC, a linear plot was obtained and the extinction co-efficient delta between the substrate (mesotrione) and the second product (oxy-mesotrione) was obtained according to the equation ΔA330=(εp-εs)*bΔp where ΔA330 is the change of absorbance at 330 nm and b is the light path.

B1: Os.TDO: TDO from Oryza sativa (HIS1), SEQ ID NO:2, polynucleotide codon optimized for dicot expression (protein, listed as Oryza sativa)
chain: MADESWRAPAIVQELAAAGVEEPPSRYLLREKDRSDVKLVAAELPEPLPVVDLSRLDGAEEATKLRVALQNWGFFLLTNHGVEASLMDSVMNLSREFFNQPIERKQKFSNLIDGKNFQIQGYGTDRVVTQDQILDWSDRLHLRVEPKEEQDLAFWPDHPESFRDVLNKYASGTKRIRDDIIQAMAKLLELDEDYFLDRLNEAPAFARFNYYPPCPRPDLVFGIRPHSDGTLLTILLVDKDVSGLQVQRDGKWSNVEATPHTLLINLGDTMEVMCNGIFRSPVHRVVTNAEKERISLAMLYSVNDEKDIEPAAGLLDENRPARYRKVSVEEFRAGIFGKFSRGERYIDSLRI
- typical injury rating for R0 soybean [1]: high 20% to low 30%
- specific activity of the second hydroxylation [2]: highest activity
